Laboratory results: patent US20230287087A1 (MAX PLANCK GESELLSCHAFT ZUR F RDERUNG DER WISSENSCHAFTEN E V, published 2023)
Several values for one entry are separate records, joined by “and”; a condition that tells them apart may be missing. Identical values can stand only once.

Experiments:
[1] = molecular target: T1, Spike protein of patient-derived SARS-CoV-2 (D614G) (SARS-CoV-2, UniProt P0DTC2 14-1273); assay: cell-based or functional assay
[2] = molecular target: T1, Spike protein of patient-derived …; assay: cell-based or functional assay; remark: listed apart in the source
[3] = molecular target: Californian RBD mutant (L452R) (SARS-CoV-2, UniProt P0DTC2 319-541); assay: method not stated
[4] = molecular target: T2, SARS-CoV-2 spike receptor-binding domain (RBD), wild type (SARS-CoV-2, UniProt P0DTC2 319-541); assay: BLI, biotinylated VHH on streptavidin sensor, RBD in solution
[5] = molecular target: T3, B.1.617.2/Delta RBD (40592-V08H90, Sino Biologicals) (SARS-CoV-2, UniProt P0DTC2 319-541); assay: as above
[6] = molecular target: quadruple (K417T, L452R, E484K, N501Y) RBD mutant (SARS-CoV-2, UniProt P0DTC2 319-541); assay: method not stated
[7] = molecular target: T2, SARS-CoV-2 spike receptor-binding …; assay: BLI, biotinylated VHH heterodimer on streptavidin sensor, RBD in solution
[8] = molecular target: T3, B.1.617.2/Delta RBD (40592-V08H90, Sino …); assay: as above
[9] = molecular target: T2, SARS-CoV-2 spike receptor-binding …; assay: method not stated
[10] = molecular target: T1, Spike protein of patient-derived …; assay: cell-based or functional assay; remark: listed apart in the source

B1: Re9H01 (VHH)
VHH: QVQLVESGGGLVQAGDSLRLSCAASGNIFSINAMGWYRQAPGKQRELVAFITSRGSTNYTDSVKGRFTISRDTAKDTVYLQMNSLKPEDTAVYFCRGGYSDYDIYFGSWGQGTQVTVSS
Lowest SARS-COV-2-neutralizing concentration [1]: 170 pM

B2: Re5A08 (VHH)
VHH: QVQLVESGGGLVQAGGSLRLSCTASGHTFTANRMGWFRQAPGKEREFVAAINWGGDSTNYVDSVKGRFTISRDIAKNTVYLQMNSLKPEDTAVYFCAARNHVTGEFDSWGQGTQVTVSS
Lowest neutralizing VHH concentration [2]: 5000 pM and 75 µg/liter

B3: Re6D06 (VHH)
VHH: QVQLVESGGGLVQAGASLRLSCAASGRMFGVYRMGWFRQAPGKEREFVAGISTSVGTTNYADSVKGRFTISRDNAKNTVYLQMNSLKPEDTAVYYCAARDPTTYEYDYWGQGTQVTVSS
Lowest SARS-COV-2-neutralizing concentration [1]: 500 pM
Lowest neutralizing VHH concentration [2]: 1700 pM and 25 µg/liter

B4: Re9B10 (VHH)
VHH: QVQLVESGGGLVQPGGSLRLSCAASGRMFGVYRMGWFRQAPGKEREFVAGISTSVGTTNYADSVKGRFTISRDNAKNTVYLQMNSLKPEDTAVYYCAARDPTTYEYDYWGQGTQVTVSS
Lowest SARS-COV-2-neutralizing concentration [1]: 500 pM

B5: Re10B10 (VHH)
VHH: QVQLVESGGGLVQPGGSLRLSCAASGFTLDYYAIGWFRQAPGKEREGVSRIRSSDGSTTYADSVKGRFTISRDNAKNTVYLQMNSLKPEDTAVYYCAYGPLTKYGSSWYWPYEYDYWGQGTQVTVSS
Lowest SARS-COV-2-neutralizing concentration [1]: 50 pM

B6: Re5D06 (VHH)
VHH: QVQLVESGGGLVQPGGSLRLSCAASGITLDYYAIGWFRQAPGKEREGVSRIRSSDGSTNYADSVKGRFTMSRDNAKNTVYLQMNSLKPEDTAVYYCAYGPLTKYGSSWYWPYEYDYWGQGTQVTVSS
Kd [3]: ~0.4 nM

B7: Re10F10 (VHH)
VHH: QVQLVESGGGLVQPGGSLRLSCAASGFTLDYYAIGWFRQAPGKEREGVSRIRNNDGSTDYADSVKGRFTISRDNAKNTVYLQMNSLKPEDTAVYYCAYGPLTKYGSSWYWPYEYDYWGQGTQVTVSS
Lowest SARS-COV-2-neutralizing concentration [1]: 50 pM

B8: Re6B02 (VHH)
VHH: QVQLVESGGALVQPGGSLRLSCVASGFTLDYYAIGWFRQAPGKEREGVSRIRSSDGSTNYADSVKGRFTISRDNAKNTVYLQMNSLKPEDTAVYYCAYGPLTKYGSSWYWPYEYDYWGQGTQVTVSS
Lowest SARS-COV-2-neutralizing concentration [1]: 50 pM

B9: Re7B01 (VHH)
VHH: QVQLVESGGGLVQPGGSLRLSCGASGFTLDYYAIGWFRQAPGKEREGVSRIRSNDGSTDYADSVKGRFTISRDNAKNTVYLQMNSLKPEDTAVYYCAYGPLTKYGSSWYWPYEYDYWGQGTQVTVSS
Lowest SARS-COV-2-neutralizing concentration [1]: 50 pM

B10: Re9B09 (VHH)
VHH: QVQLVESGGGLVQPGGSLRLSCAASGFTLDYYAIGWFRQAPGKEREGVSRISSSDGSTDYADSVKGRFTISRDNAKNTVYLQMNSLKPEDTAVYYCATVPGTYYSGNWYYTWHPEAVDYWGKGTQVTVSS
Lowest SARS-COV-2-neutralizing concentration [1]: 170 pM
Kd [4]: ≤ 0.01 nM
Kd [5]: 0.1 nM

B11: Re9H03 (VHH)
VHH: QVQLVESGGGLVQPGGSLRLSCAASGFTLDYYAIGWFRQAPGKEREGVSRISSSDGSTDYADSVKGRFTISRDNAKNTVYLQMNSLKPEDTAVYYCATVPGTYYSGNWYYTWHPKAVDYWGKGTLVTVSS
fold better binding than Re9B09 [6]: 100 fold
Lowest SARS-COV-2-neutralizing concentration [1]: 170 pM

B12: Re9F06-SpacerA-Re9B09 (bispecific antibody)
chain: GSQVQLVESGGGLVQAGGSLRLSCAASGRTFSNDALGWFRQAPRKEREFVAAINWNSGTYYADSVKGRFTISRDNAKNTVYLQMNSLKPEDTAVYSCAAASDYGLPREDFLYDYWGQGTQVTVSSTSGEGEGGEGGEGSQVQLVESGGGLVQPGGSLRLSCAASGFTLDYYAIGWFRQAPGKEREGVSRISSSDGSTDYADSVKGRFTISRDNAKNTVYLQMNSLKPEDTAVYYCATVPGTYYSGNWYYTWHPEAVDYWGKGTQVTVSSTS
Kd [7]: ≤ 0.01 nM
Kd [8]: ≤ 0.01 nM

B13: Re5D06R15 (VHH)
VHH: QVQLVESGGGLVQPGGSLRLSCAASGITLDYYAMGWFREAPGKEREGVARIRNSDGSTNYADSVKGRFTMSRDNAKDTYYLQMNSLEPEDTADYYCAYGPLTKYGSSWYWPYEYDYWGQGTQVTVSS
Kd [4]: ≤ 0.01 nM
Kd [5]: 0.03 nM

B14: Re5D06R28 (VHH)
VHH: QVQLVESGGGLVQPGGSLRLSCAISGSTLDYYAMGWFREAPGKEREGVARWRNNDGSTNYADSVKGRFTMSRDNAKDTYYLQMNSLEPEDTADYYCAYGPLTKYGSSWHWPYEYDYWGQGTQVTVSS
Kd [4]: ≤ 0.01 nM
Kd [5]: 0.08 nM

B15: Re9C08 (VHH)
VHH: QVQLVESGGGLVQPGGSLRLSCAVSGNIFGITAWDWHRQAPGKQRELVAHITSRGDTYYLDSVKGRFAISRDHAKNTLSLQMNSLKPEDTAVYYCYLRTFGPPNDHWGQGTQVTVSS
Lowest SARS-COV-2-neutralizing concentration [1]: 500 pM

B16: Re7E02 (VHH)
VHH: QVQLVESGGGLVQAGGSLRLSCAASGFTLDYYAIGWFRQAPGKEREGVSYIRSSDGTTYYADSVKGRFTISRDNAKNTVYLQMNSLKPEDTAVYYCAADEAYYSELGWESPWGWSYWGQGTQVTVSS
Lowest SARS-COV-2-neutralizing concentration [1]: 500 pM

B17: Re9F06-SpacerA-Re5D06R28D (bispecific antibody)
chain: GSQVQLVESGGGLVQAGGSLRLSCAASGRTFSNDALGWFRQAPRKEREFVAAINWNSGTYYADSVKGRFTISRDNAKNTVYLQMNSLKPEDTAVYSCAAASDYGLPREDFLYDYWGQGTQVTVSSTSGEGEGGEGGEGSQVQLVESGGGLVQPGGSLRLSCAISGSTLDYYAMGWFREAPGKEREGVARWRNNDGSTNYADSVKGRFTMSRDNAKDTYYLQMNSLEPEDTADYYCAYGPLTKYGDEWHWPYEYDYWGQGTQVTVSSTS
Kd [7]: ≤ 0.01 nM
Kd [8]: ≤ 0.01 nM

B18: Re5F10 (VHH)
VHH: QVQLVESGGGLVQPGGSLRLSCVASGFTFSSFAMGWYRQAPGKECEWVATITITGGSTNYADSVKGRFTISRDNAKNTVYLQMNSLKPEDTAVYYCNPDPGCRRGQGTQVTVSS
Kd [9]: 0.03 nM
Kd [6]: 0.03 nM
Lowest SARS-COV-2-neutralizing concentration [1]: 1700 pM
Kd [4]: 0.04 nM
Kd [5]: 0.04 nM

B19: Re6B06 (VHH)
VHH: QVQLVESGGGLVQAGGSLRLSCAASGRAFSSAPMSWFRQAPGKEREFVASVSWSGDSTNYADSVKGRFTISRDNAKNTGYLQMNSLKPEDTAVYYCKRGPYWGQGTQVTVSS
viral RNA in supernatants of infected cells (qRT-PCR), fold inhibition [10]: ~300 fold
Lowest SARS-COV-2-neutralizing concentration [1]: 170000 pM
Lowest neutralizing VHH concentration [2]: 50000 pM and 750 µg/liter

B20: Re7H02 (VHH)
VHH: QVQLVESGGGLVQAGGSLRLSCAASGRAFESAPMSWFRQAPGKEREFVASVSWSGDSTNYADSVKGRFTISRDNAENTGYLQMNSLKPEDTAVYYCKRGPYWGQGTQVTVSS
Lowest SARS-COV-2-neutralizing concentration [1]: 17000 pM
Lowest neutralizing VHH concentration [2]: 17000 pM and 250 µg/liter

B21: Re6A11 (VHH)
VHH: QVQLVESGGGLVQAGGSLRLSCAASGRTFSNDALGWFRQAPRKEREFVAAINWNSGTYYADSVKGRFTISRDNAKNTVYLQMNSLKPEDTAVYSCAAASDYGLPREDFLYDYWGQGTLVTVSS
Lowest neutralizing VHH concentration [2]: 50000 pM and 750 µg/liter

B22: Re6A11/Re9F06 ColXVIII trimer (VHH)
VHH: QVQLVESGGGLVQAGGSLRLSCAASGRTFSNDALGWFRQAPRKEREFVAAINWNSGTYYADSVKGRFTISRDNAKNTVYLQMNSLKPEDTAVYSCAAASDYGLPREDFLYDYWGQGTLVTVSS
Lowest neutralizing VHH concentration [2]: 170 pM and 4 µg/liter

B23: Re9F06 (VHH)
VHH: QVQLVESGGGLVQAGGSLRLSCAASGRTFSNDALGWFRQAPRKEREFVAAINWNSGTYYADSVKGRFTISRDNAKNTVYLQMNSLKPEDTAVYSCAAASDYGLPREDFLYDYWGQGTQVTVSS
Lowest SARS-COV-2-neutralizing concentration [1]: 50000 pM
